According to patent US20260151499A1 (TSINGHUA UNIVERSITY, published 2026):

T1: CD73 protein (UniProt P21589 27-549)
T1 construct: also called CD73-biotin
T1 sequence (looked up): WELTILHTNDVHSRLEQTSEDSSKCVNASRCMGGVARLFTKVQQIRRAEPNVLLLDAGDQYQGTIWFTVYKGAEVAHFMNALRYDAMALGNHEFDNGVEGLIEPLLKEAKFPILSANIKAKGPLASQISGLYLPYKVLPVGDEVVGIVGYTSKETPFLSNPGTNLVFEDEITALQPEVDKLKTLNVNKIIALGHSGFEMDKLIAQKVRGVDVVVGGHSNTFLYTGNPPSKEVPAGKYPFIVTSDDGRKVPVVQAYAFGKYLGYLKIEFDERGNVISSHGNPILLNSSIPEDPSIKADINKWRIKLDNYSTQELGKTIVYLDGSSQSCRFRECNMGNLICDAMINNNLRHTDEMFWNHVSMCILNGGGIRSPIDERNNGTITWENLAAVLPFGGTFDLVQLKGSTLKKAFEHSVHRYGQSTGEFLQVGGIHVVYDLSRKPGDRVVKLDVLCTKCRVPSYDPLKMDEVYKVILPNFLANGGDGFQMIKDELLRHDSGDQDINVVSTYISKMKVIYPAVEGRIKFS


Legend:
[1] = biological target: T1, CD73 protein; experiment: Octet BLI; Ab-BN3 on protein A sensors, CD73 in solution
[2] = biological target: T1, CD73 protein; experiment: cell-based or functional assay
[3] = biological target: NaV1.2 (UniProt Q99250 1-2005); experiment: cell-based or functional assay
Sequence of NaV1.2 (Q99250 whole entry): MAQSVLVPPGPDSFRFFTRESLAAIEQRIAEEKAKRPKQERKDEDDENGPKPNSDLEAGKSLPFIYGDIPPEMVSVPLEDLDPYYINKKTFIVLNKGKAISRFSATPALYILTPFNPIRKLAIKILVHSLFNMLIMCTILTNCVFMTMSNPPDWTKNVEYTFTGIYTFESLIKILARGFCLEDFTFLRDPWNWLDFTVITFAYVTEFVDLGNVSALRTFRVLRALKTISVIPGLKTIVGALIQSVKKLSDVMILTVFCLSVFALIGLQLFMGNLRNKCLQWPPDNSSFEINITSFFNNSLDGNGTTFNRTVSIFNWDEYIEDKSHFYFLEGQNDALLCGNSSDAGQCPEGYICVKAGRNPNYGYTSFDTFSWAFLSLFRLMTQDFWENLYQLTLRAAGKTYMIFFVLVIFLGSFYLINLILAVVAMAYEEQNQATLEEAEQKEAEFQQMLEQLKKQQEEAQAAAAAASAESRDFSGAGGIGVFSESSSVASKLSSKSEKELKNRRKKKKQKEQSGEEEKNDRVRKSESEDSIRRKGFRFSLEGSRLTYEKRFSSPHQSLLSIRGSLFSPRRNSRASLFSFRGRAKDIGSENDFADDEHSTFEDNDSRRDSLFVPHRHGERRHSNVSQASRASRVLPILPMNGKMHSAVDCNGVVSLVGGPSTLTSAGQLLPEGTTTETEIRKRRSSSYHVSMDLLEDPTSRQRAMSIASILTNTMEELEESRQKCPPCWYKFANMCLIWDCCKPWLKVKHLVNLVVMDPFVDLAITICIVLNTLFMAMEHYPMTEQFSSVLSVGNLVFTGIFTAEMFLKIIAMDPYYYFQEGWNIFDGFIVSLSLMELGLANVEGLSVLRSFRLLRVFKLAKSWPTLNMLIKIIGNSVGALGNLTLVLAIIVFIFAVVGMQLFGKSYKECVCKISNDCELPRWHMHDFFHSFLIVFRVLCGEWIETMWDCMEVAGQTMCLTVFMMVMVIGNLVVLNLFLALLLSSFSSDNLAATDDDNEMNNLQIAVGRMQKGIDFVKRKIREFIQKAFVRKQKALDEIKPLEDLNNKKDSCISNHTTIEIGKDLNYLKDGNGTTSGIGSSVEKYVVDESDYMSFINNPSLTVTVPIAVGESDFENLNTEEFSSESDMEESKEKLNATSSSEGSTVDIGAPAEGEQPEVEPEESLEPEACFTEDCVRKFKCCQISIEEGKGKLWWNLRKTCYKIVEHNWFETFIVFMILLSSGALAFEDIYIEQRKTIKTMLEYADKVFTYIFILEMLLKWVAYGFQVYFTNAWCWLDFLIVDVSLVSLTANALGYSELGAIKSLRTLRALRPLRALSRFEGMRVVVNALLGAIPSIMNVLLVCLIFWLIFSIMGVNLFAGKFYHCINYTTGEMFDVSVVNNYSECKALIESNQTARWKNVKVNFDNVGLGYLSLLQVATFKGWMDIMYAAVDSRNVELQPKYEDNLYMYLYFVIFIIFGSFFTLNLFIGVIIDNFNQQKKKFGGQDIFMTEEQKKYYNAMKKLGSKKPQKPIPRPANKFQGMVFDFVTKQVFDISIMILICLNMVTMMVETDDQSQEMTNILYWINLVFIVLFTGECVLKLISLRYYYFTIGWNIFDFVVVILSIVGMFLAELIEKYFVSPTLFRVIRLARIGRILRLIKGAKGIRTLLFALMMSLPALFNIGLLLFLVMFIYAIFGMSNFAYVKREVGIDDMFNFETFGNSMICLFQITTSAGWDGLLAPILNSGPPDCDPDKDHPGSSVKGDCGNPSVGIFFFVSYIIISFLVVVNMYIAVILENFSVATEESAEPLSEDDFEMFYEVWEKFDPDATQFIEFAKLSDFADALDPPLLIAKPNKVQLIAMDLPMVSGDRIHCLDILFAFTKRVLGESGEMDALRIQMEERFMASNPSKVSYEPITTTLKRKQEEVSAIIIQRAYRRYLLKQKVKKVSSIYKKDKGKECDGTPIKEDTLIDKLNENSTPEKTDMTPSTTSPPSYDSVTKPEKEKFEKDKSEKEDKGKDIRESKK

[4] = biological target: NaV1.7 (UniProt Q15858 1-1988); experiment: cell-based or functional assay
Sequence of NaV1.7 (Q15858 whole entry): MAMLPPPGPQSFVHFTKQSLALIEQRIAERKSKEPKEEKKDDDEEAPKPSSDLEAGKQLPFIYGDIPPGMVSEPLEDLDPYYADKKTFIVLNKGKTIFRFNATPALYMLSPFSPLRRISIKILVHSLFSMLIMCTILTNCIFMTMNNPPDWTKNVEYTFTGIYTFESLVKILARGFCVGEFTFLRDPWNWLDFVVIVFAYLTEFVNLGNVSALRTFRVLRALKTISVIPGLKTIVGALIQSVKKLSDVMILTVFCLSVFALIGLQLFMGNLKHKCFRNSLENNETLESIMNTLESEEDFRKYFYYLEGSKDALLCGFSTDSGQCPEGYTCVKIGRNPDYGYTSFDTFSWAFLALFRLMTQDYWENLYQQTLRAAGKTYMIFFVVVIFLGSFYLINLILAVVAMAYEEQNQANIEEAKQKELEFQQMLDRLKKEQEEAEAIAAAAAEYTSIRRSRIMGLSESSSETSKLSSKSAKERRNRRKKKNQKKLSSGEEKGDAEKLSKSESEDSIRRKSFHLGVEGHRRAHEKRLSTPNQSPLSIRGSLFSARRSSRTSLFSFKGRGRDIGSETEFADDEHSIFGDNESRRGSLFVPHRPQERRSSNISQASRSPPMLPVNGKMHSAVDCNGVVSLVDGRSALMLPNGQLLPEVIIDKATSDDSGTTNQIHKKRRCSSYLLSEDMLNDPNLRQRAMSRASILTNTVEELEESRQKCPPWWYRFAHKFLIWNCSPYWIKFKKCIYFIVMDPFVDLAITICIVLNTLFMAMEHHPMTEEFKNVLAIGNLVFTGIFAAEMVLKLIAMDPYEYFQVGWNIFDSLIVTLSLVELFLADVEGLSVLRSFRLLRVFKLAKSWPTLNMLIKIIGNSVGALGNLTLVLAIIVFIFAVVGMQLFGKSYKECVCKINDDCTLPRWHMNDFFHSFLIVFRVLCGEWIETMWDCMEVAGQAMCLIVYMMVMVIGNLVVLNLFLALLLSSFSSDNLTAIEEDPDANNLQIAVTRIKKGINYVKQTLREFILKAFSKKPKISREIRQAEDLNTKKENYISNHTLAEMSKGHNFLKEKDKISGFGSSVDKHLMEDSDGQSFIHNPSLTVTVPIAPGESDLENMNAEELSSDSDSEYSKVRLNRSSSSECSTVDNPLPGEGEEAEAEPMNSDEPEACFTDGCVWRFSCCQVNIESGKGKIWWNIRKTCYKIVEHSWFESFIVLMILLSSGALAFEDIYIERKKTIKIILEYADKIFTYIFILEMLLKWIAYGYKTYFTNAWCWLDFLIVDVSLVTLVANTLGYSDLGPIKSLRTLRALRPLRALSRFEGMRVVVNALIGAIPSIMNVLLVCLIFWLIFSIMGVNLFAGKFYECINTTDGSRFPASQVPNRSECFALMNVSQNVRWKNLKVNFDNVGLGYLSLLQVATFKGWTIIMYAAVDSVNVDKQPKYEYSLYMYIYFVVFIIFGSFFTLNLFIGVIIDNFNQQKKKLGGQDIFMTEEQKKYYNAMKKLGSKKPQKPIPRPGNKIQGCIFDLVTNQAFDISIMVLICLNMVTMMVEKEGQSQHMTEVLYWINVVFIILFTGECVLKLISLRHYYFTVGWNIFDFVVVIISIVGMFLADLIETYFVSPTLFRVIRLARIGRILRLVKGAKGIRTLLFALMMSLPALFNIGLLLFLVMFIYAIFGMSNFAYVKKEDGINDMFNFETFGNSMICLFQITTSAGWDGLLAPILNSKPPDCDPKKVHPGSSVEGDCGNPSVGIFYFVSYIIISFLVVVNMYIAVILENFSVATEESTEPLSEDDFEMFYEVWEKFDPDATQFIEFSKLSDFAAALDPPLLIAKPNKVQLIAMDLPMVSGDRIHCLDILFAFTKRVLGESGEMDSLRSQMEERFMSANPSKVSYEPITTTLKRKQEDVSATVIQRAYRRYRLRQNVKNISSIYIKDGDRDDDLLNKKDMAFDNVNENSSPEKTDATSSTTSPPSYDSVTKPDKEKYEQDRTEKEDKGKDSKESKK

[5] = biological target: T1, CD73 protein; experiment: cell-based or functional assay; remark: listed apart in the source

Row | Binder | Kd [1] [nM] | koff [1] [s⁻¹] | kon [1] [M⁻¹ s⁻¹] | IC90 of inhibition of CD73 (malachite green phosphate assay) [2] [nM] | IC50 on HEK293-NaV1.2 cells [3] [nM] | IC50 on HEK293-NaV1.7 cells, by curve fitting [4] [nM] | IC50 of inhibition of CD73, against that of 10A7-BN3 [5]
1 | ABN3-2G-BN3 (antibody, V domains shown, not fully specified; position marked * in QQ*YTTPPT (light chain residue 91): unnatural amino acid (UAA) with azide, conjugated to BN3 (PSB12379-PEG3-DBCO), also called ABN3-2G Ab-BN3) VH: EVQLVESGGGLVQPGGSLRLSCAASGITFGSYTMSWVRQAPGKGLEWIGTVHYTGKTFYSPSLKSRVTISADTSKNTAYLQMNSLRAEDTAVYYCARGRDFGEPPYVRAFDIWGQGTLVTVSS VL: DIQMTQSPSSLSASVGDRVTITCQASHDISKYLNWYQQKPGKAPKLLIYDASNLETGVPSRFSGSRSGTDFTLTISSLQPEDFATYYCQQXYTTPPTFGQGTKLEI | 0.887 | 0.000271 | 305000 | 25.9 |  |  | 
2 | 10A7-BN3 (antibody, V domains shown, position marked * in QQ*YTTPPT (light chain residue 91): unnatural amino acid (UAA) with azide, conjugated to BN3 (PSB12379-PEG3-DBCO), also called 10A7 Ab-BN3) VH: EVQLVESGGGLVQPGGSLRLSCAASGFAFSSYSMSWVRQAPGKGLEWIGSIYYSGSTYYNPSLKSRVTISADTSKNTAYLQMNSLRAEDTAVYYCARNSGFETLDYWGQGTLVTVSS VL: DIQMTQSPSSLSASVGDRVTITCRASQGISRWLAWYQQKPGKAPNLLIYGASTLQSGVPPRFSGSRSGTDFTLTISSLQPEDFATYYCQQXYTTPPTFGQGTKLEI | 0.888 | 0.000191 | 215000 | 2.92 |  |  | 
3 | 10D8-BN3 (antibody, V domains shown, position marked * in QQ*YTTPPT (light chain residue 91): unnatural amino acid (UAA) with azide, conjugated to BN3 (PSB12379-PEG3-DBCO), also called 10D8 Ab-BN3) VH: EVQLVESGGGLVQPGGSLRLSCAASGFTFSTYAIHWVRQAPGKGLEWVSSISGSGGGGGTYYADSVKGRFTISADTSKNTAYLQMNSLRAEDTAVYYCARDRGFLQFDYWGQGTLVTVSS VL: DIQMTQSPSSLSASVGDRVTITCRASQSISSWLAWYQQKPGKAPKLLIYDVSNVQTGVPSRFSGSRSGTDFTLTISSLQPEDFATYYCQQXYTTPPTFGQGTKLEI | 1.35 | 0.000275 | 204000 | > 100 |  |  | 
4 | 14E6-PEG3-ASF (antibody, V domains shown, position marked * in QQ*YTTPPT (light chain residue 91): unnatural amino acid (UAA) with azide, conjugated to ASF-PEG3-DBCO) VH: EVQLVESGGGLVQPGGSLRLSCAASGFTFSNFAMHWVRQAPGKGLEYVSAISGGNGGGTYYADSAKGRFTISADTSKNTAYLQMNSLRAEDTAVYYCAREGNYCLDYWGQGTLVTVSS VL: DIQMTQSPSSLSASVGDRVTITCRASQPISDWLAWYQQKPGKAPKSLIYDAYNLQSGVPPRFSGSRSGTDFTLTISSLQPEDFATYYCQQXYTTPPTFGQGTKLEI |  |  |  |  | 5.02 |  | 
5 | 14H4-PEG3-ASF (antibody, V domains shown, position marked * in QQ*YTTPPT (light chain residue 91): unnatural amino acid (UAA) with azide, conjugated to ASF-PEG3-DBCO) VH: EVQLVESGGGLVQPGGSLRLSCAASGFSFSKFWMHWVRQAPGKGLEWVAFMAHDESNKNYADSVKGRFTISADTSKNTAYLQMNSLRAEDTAVYYCARDKVCNTFDIWGQGTLVTVSS VL: DIQMTQSPSSLSASVGDRVTITCRASQSISSDLNWYQQKPGKAPKLLIYRATFLESGVPSRFSGSRSGTDFTLTISSLQPEDFATYYCQQXYTTPPTFGQGTKLEI |  |  |  |  | 2.73 | > 500 | 
6 | 10A7-Fab-BN3 (Fab, V domains shown, position marked * in QQ*YTTPPT (light chain residue 91): unnatural amino acid (UAA) with azide, conjugated to BN3 (PSB12379-PEG3-DBCO)) VH: EVQLVESGGGLVQPGGSLRLSCAASGFAFSSYSMSWVRQAPGKGLEWIGSIYYSGSTYYNPSLKSRVTISADTSKNTAYLQMNSLRAEDTAVYYCARNSGFETLDYWGQGTLVTVSS VL: DIQMTQSPSSLSASVGDRVTITCRASQGISRWLAWYQQKPGKAPNLLIYGASTLQSGVPPRFSGSRSGTDFTLTISSLQPEDFATYYCQQXYTTPPTFGQGTKLEI |  |  |  |  |  |  | ~0.2 fold of the IC50 of 10A7-BN3
7 | ABN3-2B-BN3 (antibody, V domains shown, not fully specified; position marked * in QQ*YTTPPT (light chain residue 91): unnatural amino acid (UAA) with azide, conjugated to BN3 (PSB12379-PEG3-DBCO), also called ABN3-2B Ab-BN3; ABN-2B) VH: EVQLVESGGGLVQPGGSLRLSCAASGFTFSSYWMHWVRQAPGKGLEWVSAVSGSGDSTYYADSVKGRFTISADTSKNTAYLQMNSLRAEDTAVYYCAREGDWGLDYWGQGTLVTVSS VL: DIQMTQSPSSLSASVGDRVTITCRASQGINNYLAWYQQKPGKAPKLLIYDASNLETGVPSRFSGSRSGTDFTLTISSLQPEDFATYYCQQXYTTPPTFGQGTKLEI | 3.16 | 0.000582 | 185000 |  |  |  | 
